In the assay the target is T1, GST-Ppc89(545-687) (S. pombe, UniProt Q10218 545-687).
T1 sequence (looked up): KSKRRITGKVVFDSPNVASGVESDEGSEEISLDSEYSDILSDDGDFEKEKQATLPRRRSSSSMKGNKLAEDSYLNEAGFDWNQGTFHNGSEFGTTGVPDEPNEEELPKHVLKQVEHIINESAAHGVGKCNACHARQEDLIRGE
In words: pull-down; 10 µg GST-Ppc89 bound to GST beads, blocked with 5% BSA, 10 µg MBP-Sid4 added, 30 min at 4°C in GST-bind buffer (4.3 mM sodium phosphate pH 7.3, 137 mM NaCl, 2.7 mM KCl, 1 mM DTT, 0.1% NP-40); washes up to 300 mM NaCl; SDS-PAGE, Coomassie blue. The note with it: both partners purified.

B1: MBP-Sid4(546-660) (domain or fragment, S. pombe, UniProt O60187 546-660, looked up)
chain: SQPLTSLNMPDSRFNLAKEKQLYYRLGLQHIDQQCSVETANMLKTVLVQLNIPFAIFPSTIGQVRRQLQQGRRLYQWARNIHYLIYEENMRDGLVSKQCLADMLKKIRELKKRSL
notes: Sid4, S. pombe, 660 aa, residues 546-660 (predicted α-helices 7-11); source: Rosetta2(DE3)pLysS bacteria, purified (amylose resin)
On to B1, for which the binding result is reported as “binds”.

Values taken from paper PMC11708228, “New mutations in the core Schizosaccharomyces pombe spindle pole body scaffold Ppc89 reveal separable functions in regulating cell division” (G3: Genes | Genomes | Genetics, 2024).
